Assay results: patent US20260248877A1 (Universite de Rennes, priority 2021, published 2026)
Values joined by “and” are separate entries in the source; they are usually repeats but may differ in a detail not shown here. Identical values can stand only once. “Also recorded” adds a separate entry of the source.

Assays:
[1] = Determination of the aggregative character of the peptides by sedimentation; assay type: physicochemical; conditions: for % sedimentation: 800 μM peptide, sedimentable peptide after polymerization as percentage of total concentration (16p and 9tp: 288 μM per FIG. 3 legend); for aggregative character (in words): sedimentation, Garnier-Delamarche representation
Protocol: (§1) After thawing, a pre-dilution in milli Q H2O filtered through 0.2 μm was carried out in order to obtain a solution at a concentration close to the working concentration, greater than 1.25 times. This stock solution was left to incubate for 1 hour in a water bath at 25° C., and was then assayed spectrophotometrically and adjusted to the final working concentration of 1.25 times. The polymerization was initiated by adding ¼ of the volume of 5× fibrillation buffer (50 mM MOPS, 750 mM NaCl, pH=7.2) for a final concentration of 1× fibrillation buffer (10 mM MOPS, 150 mM NaCl, PH=7.2). The samples were left to incubate for 1.5-2 hours at 25° C. in a water bath. The study of the polymerization by fluorimetry was carried out under the same conditions, except that the 5× polymerization buffer was supplemented with Thioflavin T (ThT) at 100 μM in order to be able to observe the fluorescence. • (a) Determination of the Aggregative Character of the Peptides. Once polymerized, the samples were ultracentrifuged at 100,000 g for 5 minutes at 25° C. (Beckman TL100, rotor TL-A100). The supernatants of each sample were then collected. An assay at 280 nm in triplicate of each supernatant was then carried out in the presence of 1% SDS. The concentration of the supernatant was determined using the Beer-Lambert law A=ε×1×C; ε (peptides)=1450 M^−1cm^−1. The concentration of sedimentable species in the pellet was then deduced by the difference: “total concentration of the sample—concentration of free peptide present in the supernatant”. • (b) Determination of the Amyloidogenic Character of the Peptides. Once the peptides have polymerized as previously indicated, 40 μL of peptides polymerized at a concentration of 400 μM and 800 μM were diluted in 360 μL of Thioflavin T (10 μM ThT, 1×MOPS) in a thermostatically controlled tank of 0.2×1 cm, to a final volume of 400 μL. The fluorescence of the sample was then measured immediately after dilution by recording a fluorescence spectrum (470 nm to 600 nm) at an excitation wavelength of 450 nm (Perkin Elmer LS 55, PM 750, slit10).
(§2) After prediction of their amyloidogenic character by bioinformatics, all the peptides were studied using biochemical techniques, namely sedimentation and fluorescence/ThT. The biochemical experiments were carried out at two peptide concentrations: 400 μM and 800 μM. Only the results obtained at 800 μM are presented. At this concentration, in sedimentation, the amount of sedimentable peptide after polymerization was measured and expressed as a percentage as a function of the total concentration. This value corresponds to the aggregative character of the peptides. On the other hand, the fluorescence test was used to determine their amyloidogenic character, the fluorescence value given corresponds to a normalization with respect to 1p, considering that its fluorescence is 100% (Table 4).

[2] = Determination of the amyloidogenic character of the peptides by Thioflavin T fluorescence; assay type: physicochemical; conditions: for % fluorescence: 800 μM peptide, ThT fluorescence normalized to 1p = 100% (16p and 9tp: 288 μM per FIG. 3 legend); for amyloidogenic character (in words): ThT fluorescence, Garnier-Delamarche representation
Protocol: as §1, §2

[3] = molecular target: T1, PHF6 peptide (VQIVYK, 1p) (Homo sapiens, UniProt P10636); experiment: Effects of the derived peptides on VQIVYK polymerization by spectrofluorimetry (ThT kinetics); assay type: biochemical; conditions: [1p]=155 μM, [selected peptide]=310 μM; for inhibitory effect on 1p (PHF6) polymerization (in words): thresholds 50% rate, 100% fluorescence intensity; for fluorescence intensity (plateau / at 100 minutes) of 1p in the presence of peptide, % of 1p alone / maximum polymerization rate of 1p in the presence of peptide, % of 1p alone: [ThT]=32 μM
T1 construct: The polymerization of VQIVYK was initiated by adding ¼ of the volume of fibrillation buffer 5×

[4] = system: cells of the neuroblastoma line SH-SY5Y; experiment: Growth of SH-SY5Y neuroblastoma cells (images); assay type: cell-based; conditions: 100 μM, 24 hours, 1×DMEM medium, 8% serum
Protocol: The effects of three hexapeptides classified as “therapeutic” (1tp, 4tp, 6tp) and of two peptides classified as “amyloid” (7tp and 1p) on the growth of cells of the neuroblastoma line SH-SY5Y were studied after 24 hours of treatment in the presence of a hexapeptide at a concentration of 100 μM in 1×DMEM medium, 8% serum. The results obtained are presented on FIG. 10(A).

IKQVYV (Ac-IKQVYV-NH2) [5p]
% sedimentation [1]: 5%
aggregative character (in words) [1]: weakly aggregative
% fluorescence [2]: 1.1%
amyloidogenic character (in words) [2]: weakly amyloidogenic
category of polymerization kinetics of 1p in the presence of peptide [3]: generally follow the kinetics of 1p alone
inhibitory effect on 1p (PHF6) polymerization (in words) [3]: marked inhibitory effect; also recorded: with a weak inhibitory effect

VQYVIK (Ac-VQYVIK-NH2) [5tp]
% sedimentation [1]: 26%
aggregative character (in words) [1]: aggregative
% fluorescence [2]: 71.7%
amyloidogenic character (in words) [2]: amyloidogenic

Ac-IQVVYK-NH2 [7tp, IQVVYK]
effect on cell growth (number and appearance of cells) [4]: the number of cells seemed to strongly decrease

VVIQYK (Ac-VVIQYK-NH2) [2tp]
% sedimentation [1]: 58%
% fluorescence [2]: 2.9%

VQVIYK (Ac-VQVIYK-NH2) [12p]
% sedimentation [1]: 14%
% fluorescence [2]: 82% and 81.6%

VQIKYV (Ac-VQIKYV-NH2) [0tp]
% sedimentation [1]: 0%
% fluorescence [2]: 10.7%

VKYQVI (Ac-VKYQVI-NH2) [3p]
% sedimentation [1]: 18%
aggregative character (in words) [1]: more aggregative than the 10 selected hexapeptides
% fluorescence [2]: 0.2%
amyloidogenic character (in words) [2]: very poorly amyloidogenic

VQVYKI (Ac-VQVYKI-NH2) [22p]
% sedimentation [1]: 34%
% fluorescence [2]: 3%

QKYIVV (Ac-QKYIVV-NH2) [8p]
% sedimentation [1]: 0%
% fluorescence [2]: 1.9%
category of polymerization kinetics of 1p in the presence of peptide [3]: very high rate and intensity of fluorescence
inhibitory effect on 1p (PHF6) polymerization (in words) [3]: without any inhibitory effect

QVIKYV (Ac-QVIKYV-NH2) [23p]
% sedimentation [1]: 5%
aggregative character (in words) [1]: weakly aggregative
% fluorescence [2]: 0.8%
amyloidogenic character (in words) [2]: weakly amyloidogenic
category of polymerization kinetics of 1p in the presence of peptide [3]: very high rate and intensity of fluorescence
fluorescence intensity (plateau / at 100 minutes) of 1p in the presence of peptide, % of 1p alone [3]: 161.7%
maximum polymerization rate of 1p in the presence of peptide, % of 1p alone [3]: 65%
inhibitory effect on 1p (PHF6) polymerization (in words) [3]: non-inhibitory peptide; also recorded: without any inhibitory effect

IQYVVK (Ac-IQYVVK-NH2) [8tp]
% sedimentation [1]: 78%
% fluorescence [2]: 17.5%

VQKIYV (Ac-VQKIYV-NH2) [4p]
% sedimentation [1]: 1%
aggregative character (in words) [1]: weakly aggregative
% fluorescence [2]: 0.8%
amyloidogenic character (in words) [2]: weakly amyloidogenic
category of polymerization kinetics of 1p in the presence of peptide [3]: generally follow the kinetics of 1p alone
fluorescence intensity (plateau / at 100 minutes) of 1p in the presence of peptide, % of 1p alone [3]: 80%
maximum polymerization rate of 1p in the presence of peptide, % of 1p alone [3]: 50%
inhibitory effect on 1p (PHF6) polymerization (in words) [3]: inhibits the polymerization of 1p; also recorded: marked inhibitory effect; also recorded: with a weak inhibitory effect

KYIQVV (Ac-KYIQVV-NH2) [2p]
% sedimentation [1]: 67%
% fluorescence [2]: 2.8%

Ac-VQIVYK-NH2 [1p, Ac-VQIVYK-NH2, reference compound]
aggregative character (in words) [1]: self-aggregative
amyloidogenic character (in words) [2]: strong amyloidogenic
effect on cell growth (number and appearance of cells) [4]: the number of cells seemed to strongly decrease

Ac-VKIQYV-NH2 [4tp, VKIQYV]
effect on cell growth (number and appearance of cells) [4]: did not seem to have any effect

KVQYVI (Ac-KVQYVI-NH2) [14p]
% sedimentation [1]: 1%
aggregative character (in words) [1]: weakly aggregative
% fluorescence [2]: 4.4%
amyloidogenic character (in words) [2]: weakly amyloidogenic
category of polymerization kinetics of 1p in the presence of peptide [3]: generally follow the kinetics of 1p alone
inhibitory effect on 1p (PHF6) polymerization (in words) [3]: without any inhibitory effect

YIVVQK (Ac-YIVVQK-NH2) [13p]
% sedimentation [1]: 0%
aggregative character (in words) [1]: weakly aggregative
% fluorescence [2]: 2.7%
amyloidogenic character (in words) [2]: weakly amyloidogenic
category of polymerization kinetics of 1p in the presence of peptide [3]: generally follow the kinetics of 1p alone
inhibitory effect on 1p (PHF6) polymerization (in words) [3]: without any inhibitory effect

KQIVYV (Ac-KQIVYV-NH2) [20p]
% sedimentation [1]: 75%
% fluorescence [2]: 1.3%

VKVIYQ (Ac-VKVIYQ-NH2) [7p]
% sedimentation [1]: 86%
% fluorescence [2]: 1.3%

YQVIVK (Ac-YQVIVK-NH2) [17p]
% sedimentation [1]: 95%
% fluorescence [2]: 2.3%

VQVKYI (Ac-VQVKYI-NH2) [21p]
% sedimentation [1]: 33%
aggregative character (in words) [1]: poorly aggregative
% fluorescence [2]: 19.9%
amyloidogenic character (in words) [2]: amyloidogenic

VVIKYQ (Ac-VVIKYQ-NH2) [3tp]
% sedimentation [1]: 48%
% fluorescence [2]: 0.9%

IYVQKV (Ac-IYVQKV-NH2) [9p]
% sedimentation [1]: 1%
aggregative character (in words) [1]: weakly aggregative
% fluorescence [2]: 2.1%
amyloidogenic character (in words) [2]: weakly amyloidogenic
category of polymerization kinetics of 1p in the presence of peptide [3]: generally follow the kinetics of 1p alone
inhibitory effect on 1p (PHF6) polymerization (in words) [3]: without any inhibitory effect

QKVYIV (Ac-QKVYIV-NH2) [19p]
% sedimentation [1]: 76%
aggregative character (in words) [1]: vice versa
% fluorescence [2]: 0.8%
amyloidogenic character (in words) [2]: vice versa

KYVIQV (Ac-KYVIQV-NH2) [15p]
% sedimentation [1]: 71%
% fluorescence [2]: 3.9%

VKVYIQ (Ac-VKVYIQ-NH2) [11p]
% sedimentation [1]: 6%
% fluorescence [2]: 25%

KVQIVY (Ac-KVQIVY-NH2) [10p]
% sedimentation [1]: 63%
% fluorescence [2]: 3.2%

QKVVYI (Ac-QKVVYI-NH2) [18p]
% sedimentation [1]: 51%
% fluorescence [2]: 6.8%

VVQKYI (Ac-VVQKYI-NH2) [6p]
% sedimentation [1]: 14%
aggregative character (in words) [1]: weakly aggregative; also recorded: more aggregative than the 10 selected hexapeptides
% fluorescence [2]: 0.2%
amyloidogenic character (in words) [2]: weakly amyloidogenic; also recorded: very poorly amyloidogenic
